Data taken from publication PMC6754406, “Ran pathway-independent regulation of mitotic Golgi disassembly by Importin-α” (Nature Communications, 2019).

Experiments:
[1] = system: p115-CTD; test: Competition binding assay, p115-CTD remaining on GST-GM130 in presence of Importin-α FL; conditions: 40 μM Importin-α FL; three independent experiments
Procedure: Fig. 3 GM130 interacts with full-length Importin-α. a, b ITC titration curves (upper) and binding isotherms (lower) of Importin-α FL with GM130-NLS WT (a) and GM130-NLS phospho-S25 (b). Kd values are indicated. c Pulldown assays of Importin-α FL with GM130-WT or GM130-S25D. GST-tagged GM-130-WT or GM130-S25D was incubated with Importin-α FL. GST-bound samples were analyzed by SDS–PAGE and stained with Coomassie blue. d Competition binding assay. p115-CTD was incubated with either GST-GM130-WT or GST-GM130-S25D in the presence of indicated concentrations of Importin-α FL. Samples pulled down by GST beads were analyzed by SDS–PAGE and stained with Coomassie blue. e, f Band intensities of Importin-α FL and p115-CTD from the SDS–PAGE gels in d were quantified and normalized by GST-GM130 intensity. Quantitative plots show normalized Importin-α FL intensities (e) and percent p115-CTD remaining on GM130 (f).
To examine whether Importin-α FL also competes with p115-CTD for GM130 binding, we carried out competition binding assays in the presence of Importin-α FL, p115-CTD, and GM130. […] Moreover, we observed a ~2-fold increase in Importin-α FL pulldown by the phosphomimetic mutant (GM130-S25D) compared to wild-type GM130 (40 μM Importin-α FL; Fig. 3d, e). […]

[2] = system: Importin-α (a.a. 70–498); test: CD spectra thermal melting assay of complexes with Importin-α; format: physicochemical; conditions: CD at 222 nm, 20 to 75 °C, 0.2 mg/ml, 20 mM HEPES pH 7.4, 50 mM NaCl, 3 mM DTT; average of three scans; complex with Importin-α (a.a. 70–498)
Procedure: The CD spectra of the GM130-WT(1–48)•Importin-α (a.a. 70–498), GM130-S25D(1–48)•Importin-α (a.a. 70–498), and GM130-NLS phospho-S25 (a.a. 13–38)•Importin-α (a.a. 70–498) complexes were recorded using an AVIV CD400 spectrometer. Thermal melting temperatures were determined by measuring the ellipticity at a wavelength of 222 nm as a function of temperature from 20 to 75 °C. The protein concentration used in the CD measurements was 0.2 mg/ml in a buffer of 20 mM HEPES (pH 7.4), 50 mM NaCl, and 3 mM DTT. Measurements were taken three times and averaged.

[3] = molecular target: T1, Importin-β (Homo sapiens, UniProt Q14974); test: GST pulldown of Importin-β with RanQ69L (dissociation); format: binding; conditions: GM130:RanQ69L:Importin 1:4:1; three independent experiments
T1 construct: GST (N, cleaved yes); made in house; host or cells: Escherichia coli Rosetta
T1 sequence (Q14974 whole entry): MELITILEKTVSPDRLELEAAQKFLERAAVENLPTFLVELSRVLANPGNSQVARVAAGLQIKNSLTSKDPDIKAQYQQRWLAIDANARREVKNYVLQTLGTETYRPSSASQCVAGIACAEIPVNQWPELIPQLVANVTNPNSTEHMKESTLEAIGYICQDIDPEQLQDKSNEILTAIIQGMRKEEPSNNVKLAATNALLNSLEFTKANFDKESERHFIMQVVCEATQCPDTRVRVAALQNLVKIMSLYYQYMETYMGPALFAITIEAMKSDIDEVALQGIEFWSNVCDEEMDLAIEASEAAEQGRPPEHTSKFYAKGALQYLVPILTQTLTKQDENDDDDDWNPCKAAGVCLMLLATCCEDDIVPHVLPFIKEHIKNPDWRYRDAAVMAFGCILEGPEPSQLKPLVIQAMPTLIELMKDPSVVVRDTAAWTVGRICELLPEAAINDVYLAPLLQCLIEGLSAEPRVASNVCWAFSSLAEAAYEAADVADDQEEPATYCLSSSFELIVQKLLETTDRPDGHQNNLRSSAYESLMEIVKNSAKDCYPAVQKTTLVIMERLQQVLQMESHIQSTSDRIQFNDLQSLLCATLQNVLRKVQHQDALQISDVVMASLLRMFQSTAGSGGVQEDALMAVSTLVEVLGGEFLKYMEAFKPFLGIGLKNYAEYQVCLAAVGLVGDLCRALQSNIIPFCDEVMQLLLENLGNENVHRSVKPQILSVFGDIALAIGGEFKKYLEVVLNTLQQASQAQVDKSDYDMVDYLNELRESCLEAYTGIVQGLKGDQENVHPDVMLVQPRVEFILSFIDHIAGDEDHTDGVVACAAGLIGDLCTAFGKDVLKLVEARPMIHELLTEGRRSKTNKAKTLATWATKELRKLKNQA
Procedure: Fig. 4 Ran and a phosphate moiety repress GM130 and Importin-β interaction. a SEC (Superdex 200) elution profiles for the Importin-β•GST-GM130-WT complex (black line), Importin-β (gray line), and GST-GM130-WT (light gray line). The void volume (Vo) is indicated. b–d The peak fractions of the Importin-β•GST-GM130-WT complex (b), Importin-β (c), and GST-GM130-WT (d) were analyzed by SDS–PAGE and stained with Coomassie blue. e, f ITC titration curves (upper) and binding isotherms (lower) of Importin-β with GM130-NLS WT (e) and GM130-NLS phospho-S25 (f). Kd values are indicated. g Competition binding assay. GST-GM130-S25D and Importin-β were incubated with indicated concentrations of GFP-IBB. Samples pulled down by GST beads were analyzed by SDS–PAGE and stained with Coomassie blue. […] GST-bound samples were analyzed by SDS–PAGE and stained with Coomassie blue. i, k Band intensities of Importin-α or Importin-β from the SDS–PAGE gels in h, j were used to determine averages of bound protein. […]
A 1:1 molar ratio of GST-GM130-WT or mutant GM130 and Importin-α FL was incubated with glutathione-coupled sepharose beads (GE Healthcare). After pre-washing with 150 mM NaCl, proteins were eluted by a buffer containing 50 mM reduced glutathione and analyzed by SDS–PAGE. […]

B1: GM130-WT: wild type GM130 N-terminal region (a.a. 1-85) (protein)
chain: MWPQPRLPPRPAMSEETRQSKLAAAKKKLREYQQRNSPGVPTGAKKKKKIKNGSNPETTTSGGCHSPEDTPKDNAATLQPSDDTVLPGGVPSPGASLTSMAASQNHDADNVPNLMDETKTFSSTESLRQLSQQLNGLVCESATCVNGEGPASSANLKDLESRYQQLAVALDSSYVTNKQLNITIEKLKQQNQEITDQLEEEKKECHQKQGALREQLQVHIQTIGILVSEKAELQTALAHTQHAARQKEGESEDLASRLQYSRRRVGELERALSAVSTQQKKADRYNKELTKERDALRLELYKNTQSNEDLKQEKSELEEKLRVLVTEKAGMQLNLEELQKKLEMTELLLQQFSSRCEAPDANQQLQQAMEERAQLEAHLGQVMESVRQLQMERDKYAENLKGESAMWRQRMQQMSEQVHTLREEKECSMSRVQELETSLAELRNQMAEPPPPEPPAGPSEVEQQLQAEAEHLRKELEGLAGQLQAQVQDNEGLSRLNREQEERLLELERAAELWGEQAEARRQILETMQNDRTTISRALSQNRELKEQLAELQSGFVKLTNENMEITSALQSEQHVKRELGKKLGELQEKLSELKETVELKSQEAQSLQQQRDQYLGHLQQYVAAYQQLTSEKEVLHNQLLLQTQLVDQLQQQEAQGKAVAEMARQELQETQERLEAATQQNQQLRAQLSLMAHPGEGDGLDREEEEDEEEEEEEAVAVPQPMPSIPEDLESREAMVAFFNSAVASAEEEQARLRGQLKEQRVRCRRLAHLLASAQKEPEAAAPAPGTGGDSVCGETHRALQGAMEKLQSRFMELMQEKADLKERVEELEHRCIQLSGETDTIGEYIALYQSQRAVLKERHREKEEYISRLAQDKEEMKVKLLELQELVLRLVGDRNEWHGRFLAAAQNPADEPTSGAPAPQELGAANQQGDLCEVSLAGSVEPAQGEAREGSPRDNPTAQQIMQLLREMQNPRERPGLGSNPCIPFFYRADENDEVKITVI
p115-CTD remaining on GM130 [1]: ~ 38%
Tm [2]: ~ 44 °C
release of Importin-β from Importin-β•GM130 complex by RanQ69L [3]: ~ 47%
